Test system: MS2 coat protein
Test: apparent KD of MS2 coat protein; designed switch direction (-1 OFF switch, 1 ON switch): -1; higher = weaker reporter binding
Summary of the method: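 The reported apparent KD is a per-design median over clusters, from curve fits of normalised cluster fluorescence. Protein titrations used SNAP-549-labelled MS2 coat protein, doubled from 0.7 or 1.5 nM to 3 µM, in Tris-HCl pH 7.5 buffer with KCl, MgCl2, BSA, DTT, tRNA and Tween-20, with no input, 200 uM small-molecule ligand, or an oligonucleotide input. The RNA switches were transcribed on Illumina chips by stalled E. coli RNA polymerase.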

[1] = Eterna round: R95, input ligand: FMN 200 uM
[2] = Eterna round: R95, input ligand: microRNA oligo, concentration not stated
[3] = Eterna round: R95, input ligand: none
[4] = input ligand: microRNA oligo, concentration not stated

Sequence | apparent KD of MS2 coat protein (input ligand: FMN 200 uM) [nM] | apparent KD of MS2 coat protein (input ligand: none) [nM] | apparent KD of MS2 coat protein [1] [nM] | apparent KD of MS2 coat protein [2] [nM] | apparent KD of MS2 coat protein [3] [nM] | apparent KD of MS2 coat protein [4] [nM]
GAUGGCUAAGGAUAUACAUAGAAGAAUUGAACUUGGAUUAUACAUGAGGAUCACCCAUGUAGAAGGUAGUCAUC [ExGluten 3 - Jieux - Exclusion 2] (Eterna round: R97, puzzle: Exclusion 2) | 82.9 | 24.6 |  |  |  | 
GAUGUGGGUUUCCGGAGUAACAUGAGGAUCACCCAUGUAGAAGUUGGAGGGAUCAAGCUUUUUGGUCGUCACACGUG [JR_SV3TOV1_Sub053] (puzzle: Sensor v3, turn-off variant 1) |  |  | 213 | 227 | 306 | 
GAUUAACAUGAGGAUCACCCAUGUGAGGAUAUGGACUUGCCCACUUACCCUUUAGAGUCUAGAAGGCGCAUCUC [1986#30] (Eterna round: R97, puzzle: Exclusion 1) | 28.7 | 20.8 |  |  |  | 
GAUUAACAUGAGGAUCACCCAUGUGAGGAUAUUGACUUGCUCACUUUCCCAUUAGAGUCGAGAAGGCGCAUCUG [1986#19] (Eterna round: R97, puzzle: Exclusion 1) | 34.9 | 60.5 |  |  |  | 
GAUUACUGCAAGCUUAGGGACAUGAGGAUCACCCAUGUUCGUCUUAUUGAUCUAGGUACGCUGACGUACCUAGAUCU [JL-sv1-2.29 Brourd mod] (puzzle: Sensor v3, turn-off variant 1) |  |  | 14.7 | 19.4 | 13.8 | 
GAUUAGCAAGUGAGAUCCCACAUGAGGAUCACCCAUGUGCUCGUCUUAUAAGGUACUGUGACGAAAGUCACGGUACC [Mat - Sensor, turn-off var - Eli Mod - D6] (Eterna round: R97, puzzle: Sensor, turn-off variant 1) | 424 | 226 |  |  |  | 
GAUUAUGCGAGCUUUAGGGACAUGAGGAUCACCCAUGUUCGUCUUAUUAAUCUAGGUACACUGACAUACCUAAAUCU [JMF 64] (puzzle: Sensor v3, turn-off variant 1) |  |  | 21.3 | 30.5 | 21 | 
GAUUAUGCGAGCUUUAGGGACAUGAGGAUCACCCAUGUUCGUCUUAUUAGUCUAAAUGCACUGACAUACCUAAAUCU [JMF 73] (puzzle: Sensor v3, turn-off variant 1) |  |  | 12.9 | 15.3 | 13.9 | 
GAUUAUGCGAGCUUUAGGGACAUGAGGAUCACCCAUGUUCGUCUUAUUAGUCUAGGUGCACUAACAUACCUAAAUCU [JMF 35] (puzzle: Sensor v3, turn-off variant 1) |  |  | 20.7 | 36 | 21.3 | 
GAUUAUGCGAGCUUUAGGGACAUGAGGAUCACCCAUGUUCGUCUUAUUAGUCUGAGUGCACUGACAUACCUAAAUCU [JMF 85] (puzzle: Sensor v3, turn-off variant 1) |  |  | 15.4 | 22 | 16.7 | 
GAUUAUGCGAGCUUUAGGGACAUGAGGAUCACCCAUGUUCGUCUUAUUGAUCUGGAUGCACUAACAUACCUAAAUCU [JMF 27] (puzzle: Sensor v3, turn-off variant 1) |  |  | 51.1 | 64.6 | 49.3 | 
GAUUAUGCGAGCUUUAGGGACAUGAGGAUCACCCAUGUUCGUCUUAUUGGUCUAGAUACACUGACAUACCUAAAUCU [JMF 58] (puzzle: Sensor v3, turn-off variant 1) |  |  | 14.8 | 19.1 | 14 | 
GAUUAUGCGAGCUUUAGGGACAUGAGGAUCACCCAUGUUCGUCUUAUUGGUCUGGAUACGCUGACAUACCUAAAUCU [JMF 97] (puzzle: Sensor v3, turn-off variant 1) |  |  | 18.6 | 28.4 | 20.9 | 
GAUUAUGCGAGCUUUAGGGACAUGAGGAUCACCCAUGUUCGUCUUGUUGAUCUAGGUGCACUGACAUACCUAAAUCU [JMF 88] (puzzle: Sensor v3, turn-off variant 1) |  |  | 20.9 | 27.7 | 22.4 | 
GAUUGACAUGAGGAUCACCCAUGUGAGGAUAUCGGCCGGACCGUGCUGGCUUCCGUCGCGAGAAGGCGCAUAGG [Exclusion 1 V41] (puzzle: Exclusion 1) |  |  | 78.2 | 35.5 | 38.9 | 
GAUUGACAUGAGGAUCACCCAUGUGAGGAUAUCGGCUGGUACGUGUUGGCUUGCCUCUCGAGAAGGCGCAUAGG [Exclusion 1 V55] (puzzle: Exclusion 1) |  |  | 140 | 38.5 | 63.1 | 

Sequence | apparent KD of MS2 coat protein (input ligand: FMN 200 uM) [nM] | apparent KD of MS2 coat protein (input ligand: none) [nM] | apparent KD of MS2 coat protein [1] [nM] | apparent KD of MS2 coat protein [2] [nM] | apparent KD of MS2 coat protein [3] [nM] | apparent KD of MS2 coat protein [4] [nM]
GAUUGAGAGCAGGAUAUAUUCCUGAUGUAUGAAGUAGAAGGGCUCACAUGAGGAUCACCCAUGUGAUCCUGAAU [JL Dibri mod 17 mod] (Eterna round: R97, puzzle: Exclusion 6) | 15.3 | 14.3 |  |  |  | 
GCAACGCUGAAAGGAUAUGUUGACCGAGAGACAACAGAAGGUUCCGCACAUGAGGAUCACCCAUGUGAUCGUAAAAGAGCAAGC [Eternabot solution 18] (Eterna round: R96, puzzle: Exclusion NG 1) | 99.5 | 48.1 |  |  |  | 35.9
GCAAGCUUAAUCACUAUGAACAUGAGGAUCACCCAUGUAUAAGGUAAUACUUUUGGGCCCUUUAUUACUCGUCUUAU [JR_STOV1_Sub030] (Eterna round: R97, puzzle: Sensor, turn-off variant 1) | 61.3 | 80.3 |  |  |  | 
GCAAGCUUAAUCUGUAUGAACAUGAGGAUCACCCAUGUAUAAGGUAAUUCUUUUGGGUUUUUUAUUGCUCGUCUUAU [JR_STOV1_Sub025] (Eterna round: R97, puzzle: Sensor, turn-off variant 1) | 189 | 210 |  |  |  | 
GCAAGCUUUAUCACUAUGAACAUGAGGAUCACCCAUGUAUAAGGUAUUACUUUUGGGCCCUUUAGUGCUCGUCUUAU [JR_STOV1_Sub032] (Eterna round: R97, puzzle: Sensor, turn-off variant 1) | 29.8 | 29.3 |  |  |  | 
GCAAGCUUUUUCAAUAAGAACAUGAGGAUCACCCAUGUUUAAGGUAUUACUUUUGGGCUCUUUAGUGCUCGUCUUAU [JR_STOV1_Sub035] (Eterna round: R97, puzzle: Sensor, turn-off variant 1) | 17.9 | 18.2 |  |  |  | 
GCACAGGCAGGAUAUACAUGAGGAUCACCCAUGUGAUCCCUUAGGUACAAAAGUACUAGUAGAAGGGCCUGUGC [Omei Ex3 Model Bachelor's Dilema v49] (Eterna round: R97, puzzle: Exclusion 3) | 403 | 1040 |  |  |  | 
GCACCACGAGGAUAUACAUGAGGAUCACCCAUGUGAUCAGCAGUCCUCGGACUGCAAUGUAGAAGGCGUGGUGC [E3/1-A1] (Eterna round: R97, puzzle: Exclusion 3) | 24.3 | 776 |  |  |  | 
GCACGAAGUGUAGGAUAUCUGUGCGAUUAGCUCAGAGAAGGACACAUGAGGAUCACCCAUGUUUUCCGCGGAAGCAAUACGUGC [Eli exng1 - 058] (Eterna round: R96, puzzle: Exclusion NG 1) | 26.5 | 17.9 |  |  |  | 13.2
GCACGGAGUGUAGGAUAUCUGUGCGAUUAGCUCAGAGAAGGACACAUGAGGAUCACCCAUGUGUAACUCAAUACUCAUCCGUGC [Eli exng1 - 070] (Eterna round: R96, puzzle: Exclusion NG 1) | 8.06 | 13.9 |  |  |  | 9.18
GCACGGAGUGUAGGAUAUCUGUGCGAUUAGCUCAGAGAAGGACACAUGAGGAUCACCCAUGUGUAUCAACACAAUAAUCCGUGC [Eli exng1 - 071] (Eterna round: R96, puzzle: Exclusion NG 1) | 14.8 | 14.5 |  |  |  | 13.1
GCACGGAGUGUAGGAUAUUAGUGCGAUUAGCACUGAGAAGGACAUGAGGAUCACCCAUGUGCUACCUCAAUUAGCCUUCCGUGC [Eli exng1 - 035] (Eterna round: R96, puzzle: Exclusion NG 1) | 21.8 | 19.7 |  |  |  | 16.5
GCACGGAGUGUAGGAUAUUAGUGCGAUUAGCACUGAGAAGGACAUGAGGAUCACCCAUGUUCCUCAAUAACUCACCUUCCGUGC [Eli exng1 - 043] (Eterna round: R96, puzzle: Exclusion NG 1) | 9.73 | 11.5 |  |  |  | 10.6
GCACGGUGAGGAUAUAUAAAUGGGCAUGUCGAGAACCGUUCACAUGAGGAUCACCCAUGUAGAAGGCGCCUGUG [Eternabot (L2) Solution 58] (Eterna round: R97, puzzle: Exclusion 2) | 115 | 49 |  |  |  | 
GCACGGUUGGUAGGAUAUCAUUGCGAUUAGCUAUGAGAAGGACCACAUGAGGAUCACCCAUGUCCUCUAAUUAGCCUGCCGUGC [Eli exng1 - 014] (Eterna round: R96, puzzle: Exclusion NG 1) |  |  |  |  |  | 118
GCAGAUCACGUGAGGAUAUCGUCUACCUCGGUAGUCGAGAAGGCACAUGAGGAUCACCCAUGUGAGUGAUCUGC [Omei Ex4B B2] (Eterna round: R97, puzzle: Brourd's mod of Exclusion 4) | 13.6 | 17.6 |  |  |  | 
